In US20160143256A1:

Biological target: mouse Mc4r (melanocortin 4 receptor), untagged expression construct (mouse) (UniProt P56450)
Assay: cell-based or functional assay

UniProt P56450, sequence (P56450 whole entry): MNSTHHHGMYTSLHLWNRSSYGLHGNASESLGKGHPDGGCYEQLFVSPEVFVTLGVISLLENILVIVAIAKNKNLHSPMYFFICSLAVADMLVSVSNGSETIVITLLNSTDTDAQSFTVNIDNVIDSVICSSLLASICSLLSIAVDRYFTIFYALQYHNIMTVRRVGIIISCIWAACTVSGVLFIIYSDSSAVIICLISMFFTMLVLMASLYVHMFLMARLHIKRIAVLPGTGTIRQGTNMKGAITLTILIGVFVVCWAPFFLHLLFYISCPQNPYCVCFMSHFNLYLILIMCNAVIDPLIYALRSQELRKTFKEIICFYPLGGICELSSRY

Substance: Mrap2delE3 (mouse Mrap2 with exon 3 deleted) (from UniProt D3Z1Q2 1-55)
- αMSH-induced increase above basal PKA activity (CRELuc, CHO cells co-transfected with Mc4r and Mrap2delE3): < 2 fold

Substance: mouse Mrap2 (melanocortin 2 receptor accessory protein 2), untagged expression construct (from UniProt D3Z1Q2 1-207)
- αMSH-induced increase above basal PKA activity (CRELuc, CHO cells co-transfected with Mc4r and Mrap2, 0-10 nM αMSH): 5 fold

Substance: α-melanocyte stimulating hormone (from UniProt P01189 138-150) (peptide)
- αMSH-induced increase above basal PKA activity (CRELuc, CHO cells transfected with Mc4r alone): < 2 fold
